# From US20190233493A1 (Sanofi, published 2019)
# *1 amine or outer side, *2 acyl side, *3 side chain or, on linkers, in order; H or OH if unused. Primed or numbered codes have the meaning given here. Side-chain parts run from the residue outwards. [ ]: non-standard residue; d: D form. The star is where a group is joined. γGlu = O=C(O)[C@H](CCC(=O)[*:2])N[*:1]; Stearoyl = CCCCCCCCCCCCCCCCCC(=O)*; Palmitoyl = CCCCCCCCCCCCCCCC(=O)*; αMeK = C[C@](N)(CCCCN)C(=O)O; Nle = CCCC[C@H](N)C(=O)O; PEG2′ = PEG2 spacer unit; PEG2″ = not defined here; Aib = CC(C)(N)C(=O)O
# T1: RXFP1 receptor (UniProt Q9HBX9 1-757, limits assumed)
# T1 sequence (looked up): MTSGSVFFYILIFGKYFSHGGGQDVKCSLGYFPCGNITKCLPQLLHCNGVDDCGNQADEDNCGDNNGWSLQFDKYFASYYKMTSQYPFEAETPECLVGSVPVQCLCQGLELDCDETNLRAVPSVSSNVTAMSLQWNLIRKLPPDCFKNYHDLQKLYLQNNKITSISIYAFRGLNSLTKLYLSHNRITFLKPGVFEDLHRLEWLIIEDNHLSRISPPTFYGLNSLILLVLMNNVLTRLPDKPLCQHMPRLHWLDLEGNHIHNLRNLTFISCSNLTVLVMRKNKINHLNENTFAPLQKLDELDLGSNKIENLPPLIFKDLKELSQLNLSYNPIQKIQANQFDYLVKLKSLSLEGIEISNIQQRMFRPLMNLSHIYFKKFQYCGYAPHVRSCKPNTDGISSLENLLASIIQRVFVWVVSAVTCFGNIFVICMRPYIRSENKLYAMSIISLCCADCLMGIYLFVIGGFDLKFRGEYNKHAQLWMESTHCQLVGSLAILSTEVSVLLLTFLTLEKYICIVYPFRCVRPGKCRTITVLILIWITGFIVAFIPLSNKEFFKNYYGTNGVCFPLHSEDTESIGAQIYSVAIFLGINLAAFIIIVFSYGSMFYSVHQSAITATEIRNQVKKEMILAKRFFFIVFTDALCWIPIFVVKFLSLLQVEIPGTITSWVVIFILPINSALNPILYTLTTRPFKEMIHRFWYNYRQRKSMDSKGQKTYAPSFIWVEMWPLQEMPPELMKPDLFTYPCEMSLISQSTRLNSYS
# B1: peptide of SEQ ID NO: 1 (peptide)
# peptide: Ac-LEGREKVRAAI[Aib][Aib]EG[Nle]STWS[Aib]RKK(Palmitoyl)-NH2
# SMILES: CCCCCCCCCCCCCCCC(=O)NCCCC[C@H](NC(=O)[C@H](CCCCN)NC(=O)[C@H](CCCNC(=N)N)NC(=O)C(C)(C)NC(=O)[C@H](CO)NC(=O)[C@H](Cc1c[nH]c2ccccc12)NC(=O)[C@@H](NC(=O)[C@H](CO)NC(=O)[C@H](CCCC)NC(=O)CNC(=O)[C@H](CCC(=O)O)NC(=O)C(C)(C)NC(=O)C(C)(C)NC(=O)[C@@H](NC(=O)[C@H](C)NC(=O)[C@H](C)NC(=O)[C@H](CCCNC(=N)N)NC(=O)[C@@H](NC(=O)[C@H](CCCCN)NC(=O)[C@H](CCC(=O)O)NC(=O)[C@H](CCCNC(=N)N)NC(=O)CNC(=O)[C@H](CCC(=O)O)NC(=O)[C@H](CC(C)C)NC(C)=O)C(C)C)[C@@H](C)CC)[C@@H](C)O)C(N)=O
# B2: peptide of SEQ ID NO: 6 (peptide)
# peptide: Ac-ELEGREKVRAAI[Aib][Aib]EG[Nle]STWS[Aib]RKKK([γGlu-γGlu-γGlu-Palmitoyl])-NH2
# SMILES: CCCCCCCCCCCCCCCC(=O)N[C@@H](CCC(=O)N[C@@H](CCC(=O)N[C@@H](CCC(=O)NCCCC[C@H](NC(=O)[C@H](CCCCN)NC(=O)[C@H](CCCCN)NC(=O)[C@H](CCCNC(=N)N)NC(=O)C(C)(C)NC(=O)[C@H](CO)NC(=O)[C@H](Cc1c[nH]c2ccccc12)NC(=O)[C@@H](NC(=O)[C@H](CO)NC(=O)[C@H](CCCC)NC(=O)CNC(=O)[C@H](CCC(=O)O)NC(=O)C(C)(C)NC(=O)C(C)(C)NC(=O)[C@@H](NC(=O)[C@H](C)NC(=O)[C@H](C)NC(=O)[C@H](CCCNC(=N)N)NC(=O)[C@@H](NC(=O)[C@H](CCCCN)NC(=O)[C@H](CCC(=O)O)NC(=O)[C@H](CCCNC(=N)N)NC(=O)CNC(=O)[C@H](CCC(=O)O)NC(=O)[C@H](CC(C)C)NC(=O)[C@H](CCC(=O)O)NC(C)=O)C(C)C)[C@@H](C)CC)[C@@H](C)O)C(N)=O)C(=O)O)C(=O)O)C(=O)O
# B3: peptide of SEQ ID NO: 7 (peptide)
# peptide: Ac-LEGREKVRAQI[Aib][Aib]EGMSTWS[Aib]RKK([γGlu-γGlu-γGlu-Palmitoyl])-NH2
# SMILES: CCCCCCCCCCCCCCCC(=O)N[C@@H](CCC(=O)N[C@@H](CCC(=O)N[C@@H](CCC(=O)NCCCC[C@H](NC(=O)[C@H](CCCCN)NC(=O)[C@H](CCCNC(=N)N)NC(=O)C(C)(C)NC(=O)[C@H](CO)NC(=O)[C@H](Cc1c[nH]c2ccccc12)NC(=O)[C@@H](NC(=O)[C@H](CO)NC(=O)[C@H](CCSC)NC(=O)CNC(=O)[C@H](CCC(=O)O)NC(=O)C(C)(C)NC(=O)C(C)(C)NC(=O)[C@@H](NC(=O)[C@H](CCC(N)=O)NC(=O)[C@H](C)NC(=O)[C@H](CCCNC(=N)N)NC(=O)[C@@H](NC(=O)[C@H](CCCCN)NC(=O)[C@H](CCC(=O)O)NC(=O)[C@H](CCCNC(=N)N)NC(=O)CNC(=O)[C@H](CCC(=O)O)NC(=O)[C@H](CC(C)C)NC(C)=O)C(C)C)[C@@H](C)CC)[C@@H](C)O)C(N)=O)C(=O)O)C(=O)O)C(=O)O
# B4: peptide of SEQ ID NO: 5 (peptide)
# peptide: Ac-LEGREKVRAQI[Aib][Aib]EGMSTWS[Aib]RK([γGlu-γGlu-Palmitoyl])-NH2
# SMILES: CCCCCCCCCCCCCCCC(=O)N[C@@H](CCC(=O)N[C@@H](CCC(=O)NCCCC[C@H](NC(=O)[C@H](CCCNC(=N)N)NC(=O)C(C)(C)NC(=O)[C@H](CO)NC(=O)[C@H](Cc1c[nH]c2ccccc12)NC(=O)[C@@H](NC(=O)[C@H](CO)NC(=O)[C@H](CCSC)NC(=O)CNC(=O)[C@H](CCC(=O)O)NC(=O)C(C)(C)NC(=O)C(C)(C)NC(=O)[C@@H](NC(=O)[C@H](CCC(N)=O)NC(=O)[C@H](C)NC(=O)[C@H](CCCNC(=N)N)NC(=O)[C@@H](NC(=O)[C@H](CCCCN)NC(=O)[C@H](CCC(=O)O)NC(=O)[C@H](CCCNC(=N)N)NC(=O)CNC(=O)[C@H](CCC(=O)O)NC(=O)[C@H](CC(C)C)NC(C)=O)C(C)C)[C@@H](C)CC)[C@@H](C)O)C(N)=O)C(=O)O)C(=O)O
# Target: T1, RXFP1 receptor
# Experiment: cell-based or functional assay
Binder,"EC50 (nM), OVCAR 5 cells (cAMP) [nM]","EMax, OVCAR 5 cells (cAMP) [%]"
Ac-LEGREKVRAK(Ac)I[Aib][Aib]EG[Nle]STWS[Aib]RKK(Ac)K([PEG2′-PEG2′-γGlu-γGlu-γGlu-Palmitoyl])-NH2 [peptide of SEQ ID NO: 62],1.14,87
Ac-LEGREKVRAK(Ac)I[Aib][Aib]EGK(Ac)STWS[Aib]RKKK([PEG2′-PEG2′-γGlu-γGlu-γGlu-Palmitoyl])-NH2 [peptide of SEQ ID NO: 61],0.17,93
B1,85.3,85
B2,18,100
Ac-LEGREKVRAQI[Aib][Aib]EG[Nle]STWS[Aib]RKK(Ac)K([PEG2′-PEG2′-Stearoyl])-NH2 [peptide of SEQ ID NO: 51],71.2,100
Ac-LEGREKVRAQI[Aib][Aib]EG[Nle]STWS[Aib]RKK(Ac)K([PEG2′-PEG2′-PEG2′-Stearoyl])-NH2 [peptide of SEQ ID NO: 52],56,98
Ac-LEGREKVRAK(Ac)I[Aib][Aib]EG[Nle]STWS[Aib]RKKK([PEG2′-PEG2′-γGlu-γGlu-γGlu-Palmitoyl])-NH2 [peptide of SEQ ID NO: 60],0.11,91
Ac-LEGREKVRAQI[Aib][Aib]EG[Nle]STWS[Aib]RKK([PEG2′-PEG2′-γGlu-γGlu-γGlu-Palmitoyl])-NH2 [peptide of SEQ ID NO: 58],14.8,83
Ac-LEGREKVRAQI[Aib][Aib]EG[Nle]STWS[Aib]RKK([PEG2′-γGlu-Palmitoyl])-NH2 [peptide of SEQ ID NO: 53],15.3,97
Ac-LEGREKVRAK(Ac)I[Aib][Aib]EG[Nle]STWS[Aib]RKK([PEG2′-PEG2′-γGlu-γGlu-γGlu-Palmitoyl])-NH2 [peptide of SEQ ID NO: 59],28.2,85
B3,17.6,87
B4,86.8,105
Ac-LEGREKVRAK(Ac)I[Aib][Aib]EG[Nle]STWS[αMeK]RKK(Ac)K([PEG2″-PEG2″-PEG2″-γGlu-γGlu-γGlu-γGlu-Palmitoyl])-NH2 [peptide of SEQ ID NO: 65],0.12,93
Ac-ELEGREKVRAAI[Aib][Aib]EG[Nle]STWS[Aib]RKK([PEG2′-PEG2′-γGlu-γGlu-Palmitoyl])-NH2 [peptide of SEQ ID NO: 57],4.4,93
Ac-LEGREKVRAQI[Aib][Aib]EG[Nle]STWS[Aib]RKK([PEG2′-Palmitoyl])-NH2 [peptide of SEQ ID NO: 50],75.9,95
Ac-LEGREKVRAQI[Aib][Aib]EG[Nle]STWS[Aib]RKKK([PEG2′-PEG2′-γGlu-Stearoyl])-NH2 [peptide of SEQ ID NO: 56],0.51,95
Ac-LEGREKVRAK(Ac)I[Aib][Aib]EG[Nle]STWS[Aib]RKK(Ac)K([PEG2″-PEG2″-PEG2″-PEG2″-γGlu-γGlu-γGlu-Palmitoyl])-NH2 [peptide of SEQ ID NO: 64],0.2,81
Ac-LEGREKVRAK(Ac)I[Aib][Aib]EG[Nle]STWS[Aib]RKK(Ac)K([PEG2′-PEG2′-PEG2′-γGlu-γGlu-γGlu-Palmitoyl])-NH2 [peptide of SEQ ID NO: 63],0.84,80
Ac-ELEGREKVRAAI[Aib][Aib]EG[Nle]STWS[Aib]RKK([PEG2′-γGlu-γGlu-Palmitoyl])-NH2 [peptide of SEQ ID NO: 54],18.6,98
Ac-LEGREKVRAQI[Aib][Aib]EG[Nle]STWS[Aib]RKK([PEG2′-γGlu-γGlu-γGlu-Palmitoyl])-NH2 [peptide of SEQ ID NO: 55],19.3,94
